Reference: patent publication US20200199214A1 (Hoffmann-La Roche, published 2020)

What was measured:
[1] = target: T1, human IL-1 beta (PeproTech 200-01B) (human, UniProt P01584 117-269); test: SPR, Fab captured via anti-Fab antibody, human IL-1beta injected, 1:1 Langmuir fit
T1 construct: As printed it covers only the N-terminal part of the precursor, so it was not used; also called huIL-1 beta; IL1β
Description: An anti-Fab capturing antibody (GE Healthcare 28958325) was immobilized to a Series S Sensor Chip C1 (GE Healthcare 29104990) using standard amine coupling chemistry resulting in a surface density of approximately 500 resonance units (RU). The bispecific anti-VEGF/anti-IL-1beta Fab fragment was captured to the surface with resulting capture levels of approximately 20 RU. A dilution series ranging from 0.74 to 60 nM (1:3 dilution) of either human IL-1 beta (PeproTech 200-01B) or cynomolgus IL-1 beta (Sino Biological 90010-CNAE) was injected for 90 s, dissociation was monitored for at least 600 s at a flow rate of 30 μl/min. The surface was regenerated by two consecutive injections of 10 mM Glycine pH 2.1 for 60 s each. Bulk refractive index differences were corrected by subtracting blank injections and by subtracting the response obtained from the control flow cell without captured bispecific anti-VEGF/anti-IL-1beta Fab fragment. Curve fitting was performed using the 1:1 Langmuir binding model within the Biacore evaluation software.
Binding kinetics to VEGF and IL-1beta for the candidate antibodies were assessed as described in Example 3 using the indicated bispecific anti-VEGF/anti-IL-1beta Fab fragments (amino acid sequence as illustrated in Table 3). For comparison, antigen binding kinetics of prior art anti-VEGF/anti-IL-1beta antibody 0032, a full length IgG antibody, as disclosed in WO2016/075034 are depicted.

human VEGF121 [2] = target: T2, human VEGF121 (human, UniProt P15692-9 27-147); test: SPR competition: Fab preincubated with 50 nM VEGF121, injected over immobilised hVEGFR2 (competitor); in presence of IL-1beta
T2 construct: No tag is stated for these preparations; Kept apart from VEGF121-His; also called HuVEGF121
T2 sequence (looked up): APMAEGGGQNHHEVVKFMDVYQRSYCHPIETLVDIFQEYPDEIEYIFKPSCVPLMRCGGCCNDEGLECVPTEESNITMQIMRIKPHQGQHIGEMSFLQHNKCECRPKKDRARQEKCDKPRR
Description: (§1) As running and dilution buffer, HBS-P+(10 mM HEPES, 150 mM NaCl pH 7.4, 0.05% Surfactant P20) was used.
(§2) For assessing VEGF-receptor binding inhibition, a final concentration of 200 nM of R07200394 or 400 nM antibody 0032 was preincubated with 50 nM VEGF121. For assessing IL-1beta-receptor binding inhibition, a final concentration of 200 nM of R07200394 or 200 nM antibody 0032 was with preincubated with 50 nM IL-1beta. Samples were diluted (1:2) in the corresponding 50 nM VEGF121 or IL-1beta solution.
(§3) The antibody/ligand mixtures were injected onto the VEGFR2 or IL-1R1 surface for 60 s at a flow rate of 5 μl/min. After a dissociation phase for 60 s, the VEGFR2 surface was regenerated by injecting 5 mM NaOH for 60 s, whereas the IL-1R1 surface was regenerated by injecting 10 mM Glycine pH 3.0 followed by 5 mM NaOH for 60 s each. Bulk refractive index differences were corrected by subtracting blank injections and by subtracting the response obtained from the blank control flow cell. For evaluation, the binding response 5 seconds after inject end was taken. The derived response in RU was transformed to a binding response relative to the initial signal corresponding to the ligand(s) without antibody. IC50 values were calculated using a 4 parameter logistic model (XLfit, ID Business Solutions Ltd.)

human VEGF121 [3] = target: T2, human VEGF121; test: SPR competition: Fab (from 200 nM, 1:2 dilutions) preincubated with 50 nM VEGF121, injected over immobilised hVEGFR2 (competitor); without IL-1beta
Description: as §1, §2, §3

human VEGF121 [4] = target: T2, human VEGF121; test: competition ELISA: Fab preincubated with VEGF121, free VEGF121 bound to coated rhVEGFR-1-Fc detected; sheet title 'Competition ELISA VEGFR1-Fc, 8 pM VEGF121'
Description: (§4) 96-well-Plates (Maxisorp Nunc-Immoplates) were coated with 50 μL/well rhVEGFR-1-Fc (R&D #321-FL-050) at a final concentration of 1 μg/ml in 200 mM NaHC0₃, pH 9.4 for 1 hour at room temperature.
(§5) Meanwhile, antibody Fab fragments of different concentrations were preincubated with VEGF for form an antibody Fab-VEGF premix as follows: A dilution series of antibody Fab fragment was prepared by adding 280 μl of a solution of antibody Fab fragments (409.6 nM antibody in PBST-1% BSA) into the wells of the first column of a round bottom 96-well PS plate. The individual wells of columns 2-12 of the same plate were filled with 140 μl PBST-1% BSA. Subsequently, 1:2 dilutions were performed by transferring 140 μl of the antibody solution into the next column, thorough mixing and proceed with transferring 140 μl of this diluted antibody solution to the next column. This is repeated until column 11. Excess of 140 μl were discarded so that all wells comprise 140 μl. Column 12 served as the control (blank). […] 50 μl of the dilution series of the respective antibody Fab fragment were added to the VEGF121, or VEGF165, respectively; mixed thoroughly and incubated for 1.5 hours at room temperature.
(§6) The rhVEGFR-1-Fc coated plates were washed two times with PBST and blocked for 45 min with 200 μl of 2% MPBST. After washing off the MPBST solution twice with PBST, 50 μl of the antibody Fab-VEGF premix were added to the plate and incubated for 1.5 hours at room temperature. Subsequently, the plates were washed twice with PBST. Then, 50 μl of a solution comprising biotinylated anti-VEGF antibody (R&D, BAF293; 1:2000 dilution in PBST) and SA-HRP (KPL, 14-30-00; 1:2000 dilution in PBST) was added and incubated for 30 min at room temperature. After 6× washing with PBST, 50 μl of TMB substrate solution (two-component HRP substrate (KPL, 34021); used at room temperature) was added and incubated for 30 min at room temperature. 50 μl of 1N H₂SO₄ was added and absorbance was read at 450 nm.

VEGF165 = target: T3, VEGF165 (UniProt P15692-4 27-191); test: competition ELISA: Fab preincubated with VEGF165, free VEGF165 bound to coated rhVEGFR-1-Fc detected; sheet title 'Competition ELISA VEGFR1-Fc, 8 pM VEGF165'
T3 construct: also called VEGF165 (Humanzyme, HZ-1153)
Description: as §4, §5, §6

Kd [1]: 0.021 nM
koff [1]: 0.000102 s⁻¹
kon [1]: 4.73e+06 M⁻¹ s⁻¹
t 1/2 [1]: 1.9 h
IC50 (human VEGF121 [2]): 39 nM
IC50 (human VEGF121 [3]): 44 nM
IC50 (read off the curve) (human VEGF121 [4]): ~0.04 nM
IC50 (read off the curve) (VEGF165): ~0.09 nM
B1: bispecific anti-VEGF/anti-IL-1beta Fab fragment RO7200394 (Fab, V domains shown)
VH: DEQLVESGGGLVKPGGSLRLSCAAEGMVFKWNDMSWVRQAPGKGLEWVGSISKKGDHKYLNTKFIGRFTISRDNEKDTLYLQMNSLRAEDTAVYYCAKDVGFFDIWGQGTLVTVSS
VL: AIYMHQEPSSLSASVGDRVTITCHGSYWLSSLVAWYQQKPGKAPKLLIYDAKYKHLGVPSRFSGSKEDQEFTLTISSLQPEDFATYYCQQYRYHPYTFGHGTKVEIKR
notes: same variable domains as 1HVL12.85; also called R07200394
